B1: OR4K15 (parent)
chain: GUUAACGGUCAUAGGCCAUGGAAACUAGGAGCACCAUUUCGCUGCCAGUGAAGAAAUGAACAAAGAAAAUCUGGGCCAGGCAGGCAUCAAAAGAAAUAGUCUUGCGCUCAACCAGAAAGUCUGUAAUCAUUUUAAGGGUA

Variants of: B1
Assay: self-cleavage, relative activity (ratio to wild type); higher = more cleavage; in vitro, sequencing; the parent is a self-cleaving ribozyme

Row | Variant | self-cleavage
1 | GUUAACGGUCAUAGGCCAUGGAACCUAGGAGCACCAUUUCGCUGCCAGUGAAGAAAUGAACAAAGAAAAUCUGGGCCAGGCAGGCAUCAAAAGAAAUAGUCUUGCGCUCAACCAGAACGUCUGUAAUCAUUUUAAGGGUA [A24C A118C] | 0.84
2 | GUUAACGGUCAUAGGCCAUGGAAGCUAGGAGCACCCUUUCGCUGCCAGUGAAGAAAUGAACAAAGAAAAUCUGGGCCAGGCAGGCAUCAAAAGAAAUAGUCUUGCGCUCAACCAGAAAGUCUGUAAUCAUUUUAAGGGUA [A24G A36C] | 1.51
3 | GUUAACGGUCAUAGGCCAUGGAACCUAGGAGCACCAUUUCGCUGCCAGUGAAGAAAUGAACAAAGAAAAUCUGGGCCAGGCAGGCAUCAAAAGAAAUAGUCUUGCGCUCAACCAGAAAGUCUAUAAUCAUUUUAAGGGUA [A24C G123A] | 1.91
4 | GUUAACGGUCAUAGGCCAUGGAAGCUAGGAGCACCAUUUCGCUGCCAGUGAAGAAAUGAUCAAAGAAAAUCUGGGCCAGGCAGGCAUCAAAAGAAAUAGUCUUGCGCUCAACCAGAAAGUCUGUAAUCAUUUUAAGGGUA [A24G A60U] | 1.08
5 | GUUAACGGUCAUAGGCCAUGGAACCUAGGAGCACCAUUUCGCUGCCAGUGAAGAAAUGAACAAAGAAAAUCUGGGCCAGGCAGGCAUCAAAAGAAAUAGUCUUGCGCUCAACCAGAAAGUCUGUAAUCAUUUAAAGGGUA [A24C U133A] | 1.76
6 | GUUAACGGUCAUAGGCCAUGGAAGCUAGGAGCUCCAUUUCGCUGCCAGUGAAGAAAUGAACAAAGAAAAUCUGGGCCAGGCAGGCAUCAAAAGAAAUAGUCUUGCGCUCAACCAGAAAGUCUGUAAUCAUUUUAAGGGUA [A24G A33U] | 1.73
7 | GUUAACGGUCAUAGGCCAUGGAAGCUAGGAGCGCCAUUUCGCUGCCAGUGAAGAAAUGAACAAAGAAAAUCUGGGCCAGGCAGGCAUCAAAAGAAAUAGUCUUGCGCUCAACCAGAAAGUCUGUAAUCAUUUUAAGGGUA [A24G A33G] | 0.85
8 | GUUAACGGUCAUAGGCCAUGGAACCUAGGAGCACCAUUUCGCUGCCAGUGAAGAAAUGAACAAAGAAAAUCUGGGCCAGGCAGGCAUCAAAAGAAAUAGUCUUGCGCUCAACCAGAGAGUCUGUAAUCAUUUUAAGGGUA [A24C A117G] | 0.83
9 | GUUAACGGUCAUAGGCCAUGGAAGCUAGGAGCACCAUUUCGCUGCCAGUGAAGAGAUGAACAAAGAAAAUCUGGGCCAGGCAGGCAUCAAAAGAAAUAGUCUUGCGCUCAACCAGAAAGUCUGUAAUCAUUUUAAGGGUA [A24G A55G] | 0.67
10 | GUUAACGGUCAUAGGCCAUGGAAGCUAGGAGCACCAUUUCGCUGCCAGUGAAGAAAUGAACAAAGAUAAUCUGGGCCAGGCAGGCAUCAAAAGAAAUAGUCUUGCGCUCAACCAGAAAGUCUGUAAUCAUUUUAAGGGUA [A24G A67U] | 1.32
11 | GUUAACGGUCAUAGGCCAUGGAACCUAGGAGCACCAUUUCGCUGCCAGUGAAGAAAUGAACAAAGAAAAUCUGGGCCAGGCAGGCAUCAAAAGAAAUAGUCUUGCGCUCAACCAGAAAGUCUGUAAUCAUUCUAAGGGUA [A24C U132C] | 1.46
12 | GUUAACGGUCAUAGGCCAUGGAAGCUAGGAGCACCAUUUCGCUGCCAGUGAAGAAGUGAACAAAGAAAAUCUGGGCCAGGCAGGCAUCAAAAGAAAUAGUCUUGCGCUCAACCAGAAAGUCUGUAAUCAUUUUAAGGGUA [A24G A56G] | 1.25
13 | GUUAACGGUCAUAGGCCAUGGAAGCUAGGAGCACCAUUUCGCUGCCAGUGAAGAAUUGAACAAAGAAAAUCUGGGCCAGGCAGGCAUCAAAAGAAAUAGUCUUGCGCUCAACCAGAAAGUCUGUAAUCAUUUUAAGGGUA [A24G A56U] | 0.97
14 | GUUAACGGUCAUAGGCCAUGGAAGCUAGGAGCACCAUUUCGCUGCCAGUGAAGAACUGAACAAAGAAAAUCUGGGCCAGGCAGGCAUCAAAAGAAAUAGUCUUGCGCUCAACCAGAAAGUCUGUAAUCAUUUUAAGGGUA [A24G A56C] | 1.02
15 | GUUAACGGUCAUAGGCCAUGGAACCUAGGAGCACCAUUUCGCUGCCAGUGAAGAAAUGAACAAAGAAAAUCUGGGCCAGGCAGGCAUCAAAAGAAGUAGUCUUGCGCUCAACCAGAAAGUCUGUAAUCAUUUUAAGGGUA [A24C A96G] | 1.72
16 | GUUAACGGUCAUAGGCCAUGGAAGCUGGGAGCACCAUUUCGCUGCCAGUGAAGAAAUGAACAAAGAAAAUCUGGGCCAGGCAGGCAUCAAAAGAAAUAGUCUUGCGCUCAACCAGAAAGUCUGUAAUCAUUUUAAGGGUA [A24G A27G] | 0.97
17 | GUUAACGGUCAUAGGCCAUGGAAGCUCGGAGCACCAUUUCGCUGCCAGUGAAGAAAUGAACAAAGAAAAUCUGGGCCAGGCAGGCAUCAAAAGAAAUAGUCUUGCGCUCAACCAGAAAGUCUGUAAUCAUUUUAAGGGUA [A24G A27C] | 0.55
18 | GUUAACGGUCAUAGGCCAUGGAACCUAGGAGCACCAUUUCGCUGCCAGUGAAGAAAUGAACAAAGAAAAUCUGGGCCAGGCAGGCAUCAAAAGAAAUAGUCUUGCGCUCAGCCAGAAAGUCUGUAAUCAUUUUAAGGGUA [A24C A111G] | 0.01
19 | GUUAACGGUCAUAGGCCAUGGAAGCUAGGAGCACCAUUUCGCUGCCAGUGCAGAAAUGAACAAAGAAAAUCUGGGCCAGGCAGGCAUCAAAAGAAAUAGUCUUGCGCUCAACCAGAAAGUCUGUAAUCAUUUUAAGGGUA [A24G A51C] | 0.87
20 | GUUAACGGUCAUAGGCCAUGGAACCUAGGAGCACCAUUUCGCUGCCAGUGAAGAAAUGAACAAAGAAAAUCUGGGCCAGGCAGGCAUCAAAAGAAAUAGUCUUGCGCUCAACCGGAAAGUCUGUAAUCAUUUUAAGGGUA [A24C A114G] | 0.97
21 | GUUAACGGUCAUAGGCCAUGGAAGCUAGGAGCACCAUUUCGCUGCCAGUGAAGAAAUGAACAAAGAAAGUCUGGGCCAGGCAGGCAUCAAAAGAAAUAGUCUUGCGCUCAACCAGAAAGUCUGUAAUCAUUUUAAGGGUA [A24G A69G] | 1.31

Row | Variant | self-cleavage
22 | GUUAACGGUCAUAGGCCAUGGAACCUAGGAGCACCAUUUCGCUGCCAGUGAAGAAAUGAACAAAGAAAAUCUGGGCCAGGCAGGCACCAAAAGAAAUAGUCUUGCGCUCAACCAGAAAGUCUGUAAUCAUUUUAAGGGUA [A24C U87C] | 1.44
23 | GUUAACGGUCAUAGGCCAUGGAACCUAGGAGCACCAUUUCGCUGCCAGUGAAGAAAUGAACAAAGAAAAUCUGGGCCAGGCAGGCAUCAAAAGAAAUAGUCUUGCGCUCAACCAGAAAGUCUGUAAUCACUUUAAGGGUA [A24C U130C] | 0.42
24 | GUUAACGGUCAUAGGCCAUGGAAGCUAGGAGCACCAUUUCGCUGCCAGUGAAGAAAUGAACAAAGAAUAUCUGGGCCAGGCAGGCAUCAAAAGAAAUAGUCUUGCGCUCAACCAGAAAGUCUGUAAUCAUUUUAAGGGUA [A24G A68U] | 0.87
25 | GUUAACGGUCAUAGGCCAUGGAAGCUAGGUGCACCAUUUCGCUGCCAGUGAAGAAAUGAACAAAGAAAAUCUGGGCCAGGCAGGCAUCAAAAGAAAUAGUCUUGCGCUCAACCAGAAAGUCUGUAAUCAUUUUAAGGGUA [A24G A30U] | 1.29
26 | GUUAACGGUCAUAGGCCAUGGAACCUAGGAGCACCAUUUCGCUGCCAGUGAAGAAAUGAACAAAGAAAAUCUGGGCCAGGCAGGCAUCAAAAGAAAUAGUCUUGCGCUCAACCAGAAAGUCCGUAAUCAUUUUAAGGGUA [A24C U122C] | 1.49
27 | GUUAACGGUCAUAGGCCAUGGAAGCUAGGAGCACCAUUUCGCUGCCAGUGAAGGAAUGAACAAAGAAAAUCUGGGCCAGGCAGGCAUCAAAAGAAAUAGUCUUGCGCUCAACCAGAAAGUCUGUAAUCAUUUUAAGGGUA [A24G A54G] | 1.12
28 | GUUAACGGUCAUAGGCCAUGGAACCUAGGAGCACCACUUCGCUGCCAGUGAAGAAAUGAACAAAGAAAAUCUGGGCCAGGCAGGCAUCAAAAGAAAUAGUCUUGCGCUCAACCAGAAAGUCUGUAAUCAUUUUAAGGGUA [A24C U37C] | 1.29
29 | GUUAACGGUCAUAGGCCAUGGAAGCUAGGAGCACCAUUUCGCUGCCAGUGAAGAAAUGAACGAAGAAAAUCUGGGCCAGGCAGGCAUCAAAAGAAAUAGUCUUGCGCUCAACCAGAAAGUCUGUAAUCAUUUUAAGGGUA [A24G A62G] | 1.27
30 | GUUAACGGUCAUAGGCCAUGGAAGCUAGGAGCACCAUUUCGCUGCCAGUGAAGAAAUGAACUAAGAAAAUCUGGGCCAGGCAGGCAUCAAAAGAAAUAGUCUUGCGCUCAACCAGAAAGUCUGUAAUCAUUUUAAGGGUA [A24G A62U] | 1.12
31 | GUUAACGGUCAUAGGCCAUGGAACCUAGGAGCACCAUUUCGCUGCCAGUGAAGAAAUGAACAAAGAAAAUCUGGGCCAGGCAGGCAUCAAAAGAAAUAGUCUCGCGCUCAACCAGAAAGUCUGUAAUCAUUUUAAGGGUA [A24C U103C] | 1.38
32 | GUUAACGGUCAUAGGCCAUGGAAGCUAGGAGCACCAUUUCGCUGCCAGUGAGGAAAUGAACAAAGAAAAUCUGGGCCAGGCAGGCAUCAAAAGAAAUAGUCUUGCGCUCAACCAGAAAGUCUGUAAUCAUUUUAAGGGUA [A24G A52G] | 1.44
33 | GUUAACGGUCAUAGGCCAUGGAACCUAGGAGCACCAUUUAGCUGCCAGUGAAGAAAUGAACAAAGAAAAUCUGGGCCAGGCAGGCAUCAAAAGAAAUAGUCUUGCGCUCAACCAGAAAGUCUGUAAUCAUUUUAAGGGUA [A24C C40A] | 1.99
34 | GUUAACGGUCAUAGGCCAUGGAAGCUAGGAGCACCAUUUCGCUGCCAGUGAAGAAAUGUACAAAGAAAAUCUGGGCCAGGCAGGCAUCAAAAGAAAUAGUCUUGCGCUCAACCAGAAAGUCUGUAAUCAUUUUAAGGGUA [A24G A59U] | 0.51
35 | GUUAACGGUCAUAGGCCAUGGAACCUAGGAGCACCAUUUCGCUGCCAGUGAAGAAAUGAACAAAGAAAAUCUGGGCCAGGCAGGCAUCAAAAGAAAUGGUCUUGCGCUCAACCAGAAAGUCUGUAAUCAUUUUAAGGGUA [A24C A98G] | 0.56
36 | GUUAACGGUCAUAGGCCAUGGAAGCUAGGAGCACCAUUUCGCUGCCAGUGAAGAAAUGAACAAGGAAAAUCUGGGCCAGGCAGGCAUCAAAAGAAAUAGUCUUGCGCUCAACCAGAAAGUCUGUAAUCAUUUUAAGGGUA [A24G A64G] | 1.01
37 | GUUAACGGUCAUAGGCCAUGGAAGCUAGGAGCACCAUUUCGCUGCCGGUGAAGAAAUGAACAAAGAAAAUCUGGGCCAGGCAGGCAUCAAAAGAAAUAGUCUUGCGCUCAACCAGAAAGUCUGUAAUCAUUUUAAGGGUA [A24G A47G] | 0.73
38 | GUUAACGGUCAUAGGCCAUGGAACCUAGGAGCACCAUUUCGCUGCCAGUGAAGAAAUGAACAAAGAAAAUCUGGGCCAGGCAGGCAUCAAAAGAAAUAGUCUUGCGCUCAACCAGAAAGUCUGUUAUCAUUUUAAGGGUA [A24C A125U] | 2.07
39 | GUUAACGGUCAUAGGCCAUGGAACCUAGGAGCACCAUUUCGCUGCCAGUGAAGAAAUGAACAAAGAAAAGCUGGGCCAGGCAGGCAUCAAAAGAAAUAGUCUUGCGCUCAACCAGAAAGUCUGUAAUCAUUUUAAGGGUA [A24C U70G] | 0.73
40 | GUUAACGGUCAUAGGCCAUGGAACCUAGGAGCACCAUUUCGCUGCCAGUGAAGAAAUGAACAAAGAAAAUCUGGGCCAGGCAGGCAUCAAAAGAUAUAGUCUUGCGCUCAACCAGAAAGUCUGUAAUCAUUUUAAGGGUA [A24C A95U] | 2.22
41 | GUUAACGGUCAUAGGCCAUGGAACCUAGGAGCACCAUUUCGCUGCCAGUGAAGAAAUGAACAAAGAAAAUCUGGGCCAGGCAGGCAUCAAAAGAAAUAGUCUUGCGCUCAACCAGAAAGCCUGUAAUCAUUUUAAGGGUA [A24C U120C] | 1.13
